Reference: PMC9828637, “Pol32, an accessory subunit of DNA polymerase delta, plays an essential role in genome stability and pathogenesis of Candida albicans” (Gut Microbes, 2023)

Target: T1, CaPol32 (wild type, GST tag cleaved) (C. albicans, UniProt A0A1D8PDM8 1-403)
T1 construct: Pol32, smallest subunit of DNA polymerase delta, C. albicans SC5314; ORF amplified from genomic DNA with primers NAP39 (start codon) and NAP40 (stop codon); length 403 aa, 46.0 kDa; source: S. cerevisiae protease deficient strain, purified (glutathione-Sepharose 4B, GST cleaved with PreScission protease); not shown: GST, N-terminal, cleaved
T1 sequence (looked up): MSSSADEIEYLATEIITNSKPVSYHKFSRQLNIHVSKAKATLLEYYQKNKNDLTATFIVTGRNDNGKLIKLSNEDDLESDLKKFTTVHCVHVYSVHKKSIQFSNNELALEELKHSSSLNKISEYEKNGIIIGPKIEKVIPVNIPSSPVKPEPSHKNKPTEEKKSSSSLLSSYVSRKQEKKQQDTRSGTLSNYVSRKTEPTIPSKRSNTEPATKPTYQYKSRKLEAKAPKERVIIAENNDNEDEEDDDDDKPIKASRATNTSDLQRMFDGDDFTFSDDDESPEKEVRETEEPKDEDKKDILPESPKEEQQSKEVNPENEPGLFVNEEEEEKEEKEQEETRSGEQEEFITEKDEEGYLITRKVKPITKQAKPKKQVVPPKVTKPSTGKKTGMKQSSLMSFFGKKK
Test: ITC; MicroCal PEAQ-ITC, 25°C, 20 mM HEPES pH 7.4, 150 mM NaCl; 20 μM CaPol32 or CaPol32 (F398A, F399A) in the cell, 250 μM CaPCNA in the syringe, 25 injections of 1.5 μl; one-site binding model
Details: both partners purified

B1: CaPCNA (natural protein, C. albicans, UniProt Q5AMN0 1-259, looked up)
chain: MLEGKFEEAALLKKVVEAIKDCVKKCNFNCSEHGITVQAVDDSRVLLVSLLIGQTSFSEYRCDRDVTLGIDLESFSKIIKSANNEDFLTLLAEDSPDQIMAILEEKQKEKISEYSLKLMDIDSEFLQIDDMEYDAVVNMPSSDFAKLVRDLKNLSESLRVVVTKDSVKFTSEGDSGSGSVILKPYTNLKNERESVTISLDDPVDLTFGLKYLNDIVKAATLSDVITIKLADKTPALFEFKMQSGGYLRFYLAPKFDDDE
notes: PCNA (proliferating cell nuclear antigen, DNA sliding clamp), C. albicans; it calls PCNA trimeric without measuring this here; also called proliferating cell nuclear antigen of C. albicans; source: E. coli BL21 DE3, purified (glutathione-Sepharose 4B, GST cleaved with PreScission protease)
Kd: ~6.75 µM | dH: ~-27 kcal/mol | stoichiometry N: 1 CaPol32 per PCNA trimer
